This data set deals with DosRK182R (Mycobacterium tuberculosis, UniProt P9WMF9 1-217, K182R). Kind of data set: EMSA; 4, 8, 16 uM protein; 20 mM MgCl2; […]; ITC: 20 mM Tris pH 8.0, 200 mM NaCl, 25 C, […]. Conditions: protein: recombinant; tags: His6 (pET28a); chain copies: 2; label: none (ethidium bromide stain); blunt. For orientation: A gel shift assay detects complexes by their altered migration in electrophoresis.

Here are results for one molecule from paper PMC5999986.

B1: 20-bp DosR regulon consensus DNA (EM1/EM2) (dsDNA)
DNA 1: TTGGGGACTAAAGTCCCTAA
DNA 2: TTAGGGACTTTAGTCCCCAA
With B1, the binding result is on record as “binds”.
